Among the data in the Immune Epitope Database (IEDB) are Kd values, retold here.

Among the targets are HLA-A*02:06; HLA-A*02:03; HLA-A*02:02.
Common to all, as to assay: IEDB peptide-MHC binding, purified MHC/competitive/radioactivity; filed as Kd, often an IC50 or EC50 that approximates it; ≥ and ≤ were set here for values at or beyond the usual limits of such assays
[1] abbreviates: source organism: Dengue virus 1 Brazil/97-11/1997.
The mark [2] stands for this setting: source organism: Vaccinia virus WR.
The mark [3] stands for this setting: source organism: Dengue virus 2 Jamaica/1409/1983.
Where [4] appears, read: source organism: SARS coronavirus Tor2.

By Kd is commonly meant the equilibrium constant for the complex coming apart.

Some results are limits rather than exact numbers.

On to FQDGVFHTM, for which the Kd with HLA-A*02:06 (setting [1]) was 13.8 nM.

On to IAMLKSKNI, for which the results for the Kd with HLA-A*02:06 (setting [2]), with HLA-A*02:03 (setting [2]) and with HLA-A*02:02 (setting [2]) were 10600 nM, 846 nM and no less than 37700 nM, respectively.

IAVSVYGAIT: the figures for the Kd with HLA-A*02:06 (setting [2]), with HLA-A*02:03 (setting [2]) and with HLA-A*02:02 (setting [2]) were 14400 nM, 9240 nM and 7890 nM, respectively.

For the sequence IMAFILGII, the results for the Kd in the test with HLA-A*02:06 (setting [2]), in the test with HLA-A*02:03 (setting [2]) and with HLA-A*02:02 (setting [2]) were 175 nM, 29.8 nM and 17 nM, respectively.

Take GLFKTNTGTI: the Kd with HLA-A*02:03 (setting [3]) was determined as 45.8 nM.

Consider CTNDIYCDEI, for which the Kd in the test with HLA-A*02:06 (setting [2]) was 4760 nM; with HLA-A*02:03 (setting [2]), 5720 nM; with HLA-A*02:02 (setting [2]), 2460 nM.

As for LLMLVTPSMT, in the test with HLA-A*02:03 (source organism: Dengue virus 3 Martinique/1243/1999), the Kd turned out to be 169 nM.

For the sequence NVISKIYTL, the Kd came out at 1.75 nM with HLA-A*02:06 (setting [2]), 96.7 nM with HLA-A*02:03 (setting [2]) and 147 nM with HLA-A*02:02 (setting [2]).

On to NASKTINAL, for which the Kd with HLA-A*02:06 (setting [2]) is 6100 nM; with HLA-A*02:03 (setting [2]), 708 nM; with HLA-A*02:02 (setting [2]), 117 nM.

LTHFNNNENV: the Kd in the test with HLA-A*02:06 (setting [2]) turned out to be 996 nM; in the test with HLA-A*02:03 (setting [2]), 7270 nM; in the test with HLA-A*02:02 (setting [2]), 907 nM.

Regarding QTGINNVQSL, the Kd was no less than 54000 nM in the test with HLA-A*02:06 (setting [2]), no less than 24400 nM with HLA-A*02:03 (setting [2]) and no less than 20200 nM with HLA-A*02:02 (setting [2]).

As to LLLSICLGSL, the Kd was 258 nM with HLA-A*02:06 (setting [4]), 104 nM with HLA-A*02:03 (setting [4]) and 20.1 nM in the test with HLA-A*02:02 (setting [4]).

Take SLETVKMGA: the Kd is no less than 23400 nM with HLA-A*02:06 (setting [2]), 547 nM with HLA-A*02:03 (setting [2]) and 11200 nM with HLA-A*02:02 (setting [2]).

Take ALAEHISDSI: the Kd in the test with HLA-A*02:06 (setting [2]) amounted to 163 nM; with HLA-A*02:03 (setting [2]), 0.34 nM; with HLA-A*02:02 (setting [2]), 0.198 nM.

In the case of MAAAKTPVI, the results for the Kd with HLA-A*02:06 (setting [2]), with HLA-A*02:03 (setting [2]) and in the test with HLA-A*02:02 (setting [2]) were 672 nM, 209 nM and 259 nM, respectively.

Turning to NISFKSINKV, the equilibrium dissociation constant (Kd) in the test with HLA-A*02:06 (setting [2]) is 11700 nM; with HLA-A*02:03 (setting [2]), 1530 nM; with HLA-A*02:02 (setting [2]), no less than 20300 nM.

Regarding KLYGYASLT, the Kd with HLA-A*02:06 (setting [2]) amounted to 1990 nM; with HLA-A*02:03 (setting [2]), 21.5 nM; with HLA-A*02:02 (setting [2]) it was 75.8 nM.

As for RINLLVQYGA, the Kd with HLA-A*02:06 (setting [2]) turned out to be 7650 nM; with HLA-A*02:03 (setting [2]), 15300 nM; in the test with HLA-A*02:02 (setting [2]), 10300 nM.

On to DAKRNSKSL, for which the Kd with HLA-A*02:06 (setting [2]) is no less than 77100 nM; in the test with HLA-A*02:03 (setting [2]), no less than 49700 nM; in the test with HLA-A*02:02 (setting [2]), 13700 nM.

Take TQTAGPWHL: the Kd with HLA-A*02:06 (setting [3]) was 435 nM.

For the sequence IVNCLSLSNL, the Kd in the test with HLA-A*02:06 (setting [2]) worked out at 1280 nM; with HLA-A*02:03 (setting [2]), 128 nM; with HLA-A*02:02 (setting [2]) it was 338 nM.

For the sequence IVPEFAKQYV, the Kd with HLA-A*02:06 (setting [2]) amounted to 15 nM; with HLA-A*02:03 (setting [2]), 18.3 nM; with HLA-A*02:02 (setting [2]) it was 10.3 nM.

For EIVSHLRAST, the figures for the Kd in the test with HLA-A*02:06 (setting [2]), with HLA-A*02:03 (setting [2]) and with HLA-A*02:02 (setting [2]) were 12600 nM, 2810 nM and 5150 nM, respectively.

For GMVTLYLGV, in the test with HLA-A*02:03 (setting [1]), the Kd turned out to be 12.4 nM.

LQDIVNEHDI: the Kd with HLA-A*02:06 (setting [2]) was 10900 nM; in the test with HLA-A*02:03 (setting [2]), no less than 38200 nM; in the test with HLA-A*02:02 (setting [2]), 7630 nM.

With DVEKEKFVAT, the results for the equilibrium dissociation constant (Kd) with HLA-A*02:06 (setting [2]), with HLA-A*02:03 (setting [2]) and in the test with HLA-A*02:02 (setting [2]) were no less than 69200 nM, no less than 54800 nM and no less than 37500 nM, respectively.

On to MAILCVPNAV, for which, in the test with HLA-A*02:06 (setting [3]), the dissociation constant Kd was 5.35 nM.

With TLLATVTGGI, the Kd in the test with HLA-A*02:03 (setting [3]) was 12.8 nM.

LQWDDNIPEL: the Kd with HLA-A*02:06 (setting [2]) is 34.4 nM; with HLA-A*02:03 (setting [2]) it was 712 nM; with HLA-A*02:02 (setting [2]), 180 nM.

On to KTLTGEIGAV, for which the dissociation constant (Kd) in the test with HLA-A*02:06 (source organism: Dengue virus 4 Philippines/H241/1956) came out at 30.7 nM.

Take TLLGLILFVL: the values for the Kd in the test with HLA-A*02:06 (setting [2]), with HLA-A*02:03 (setting [2]) and in the test with HLA-A*02:02 (setting [2]) were 672 nM, 796 nM and 169 nM, respectively.

For FLLNKEMYL, the Kd was found to be 1.6 nM with HLA-A*02:06 (setting [4]), 1.13 nM with HLA-A*02:03 (setting [4]) and 0.329 nM in the test with HLA-A*02:02 (setting [4]).

Regarding NVTGFMEEEI, the results for the Kd with HLA-A*02:06 (setting [2]), with HLA-A*02:03 (setting [2]) and with HLA-A*02:02 (setting [2]) were 17700 nM, 5140 nM and 10300 nM, respectively.

In the case of MVTDKTAYI, the Kd was found to be 25.2 nM with HLA-A*02:06 (setting [2]), 1.99 nM with HLA-A*02:03 (setting [2]) and 16.8 nM with HLA-A*02:02 (setting [2]).
